Source: patent US12233135B2, “Therapeutic constructs for treating cancer” (PRECISION MOLECULAR INC., priority 2018, dated 2025)

Test system: B16F10-Red-FLuc mouse melanoma cells
Test: Syngeneic model of experimental metastasis to the lung using B16F10-Red-FLuc cells
Assay type: in vivo
Conditions: Example 9
Procedure: B16F10-Red-FLuc mouse melanoma cells (Perkin Elmer, Waltham, MA, USA) were cultured in RPMI 1640 cell culture medium supplemented with 10% FBS, 1% GlutaMAX™, and 1% penicillin-streptomycin, and grown at 37° C. in a humidified cell culture incubator supplied with 5% CO2. The cells were harvested by trypsinization, washed twice in HBSS and counted (using trypan blue exclusion). The final cell density was adjusted with HBSS to 3.5×10e6 cells/mL. 100 μL of cell suspension, consisting of 3.5×10e5 cells, was discharged into the tail vein of mice at the start of the study (Day 0). Imaging was performed on study Day 5, when the presence of lung tumors was confirmed in sufficient animals to commence the study. Imaging was performed as described in Example 6.
9.5% Trehalose buffer and nanoparticles containing PEG-lucia, PEG-mIL12, PEG-TK-mIL12, PEG-mIL2-mIL12 and PEG-TK-mIL2-mIL12 (each 60 μg/vial) were reconstituted in 300 μL of nuclease-free water per vial on the day of dosing to give dosing solutions of 200 μg/mL. Formulated test articles were stored at 4° C. and used on day of reconstitution.
9.5% Trehalose buffer and nanoparticles containing PEG-lucia, PEG-mIL12, PEG-TK-mIL12, PEG-mIL2-mIL12 and PEG-TK-mIL2-mIL12 were administered via intravenous injection (i.v.) on Study Days 5, 8, 11, 14 and 17. Treatments were administered at a dose of 2 mg/kg in a dosing volume of 10 mL/kg on Study Days 5, 11, 14 and 17. Due to declining body weight in all groups apart from the vehicle control at Day 6, the dose was reduced to 1 mg/kg in 5 mL/kg for the dose administered on Study Day 8. Dosing then resumed at 2 mg/kg in 10 mL/kg on Study Day 11 as per protocol.
The anti-tumor effect of nanoparticles containing PEG-mIL12 and expressing mIL-12 was compared to recombinant mIL-12 protein administered subcutaneously. The experimental design was as Example 8 but nanoparticles were prepared at N/P=4 and N/P=6 ratios. Nanoparticles were dosed as before for N/P=6, however, for the N/P=4 formulation the dose was maintained at 2 mg/kg in 10 mL/kg at day 8. […]

B1: recombinant mIL-12: recombinant mIL-12 protein (PeproTech) administered subcutaneously (protein, UniProt P43431 23-215; P43432 23-335, looked up)
Interleukin-12 subunit alpha: RVIPVSGPARCLSQSRNLLKTTDDMVKTAREKLKHYSCTAEDIDHEDITRDQTSTLKTCLPLELHKNESCLATRETSSTTRGSCLPPQKTSLMMTLCLGSIYEDLKMYQTEFQAINAALQNHNHQQIILDKGMLVAIDELMQSLNHNGETLRQKPPVGEADPYRVKMKLCILLHAFSTRVVTINRVMGYLSSA
Interleukin-12 subunit beta: MWELEKDVYVVEVDWTPDAPGETVNLTCDTPEEDDITWTSDQRHGVIGSGKTLTITVKEFLDAGQYTCHKGGETLSHSHLLLHKKENGIWSTEILKNFKNKTFLKCEAPNYSGRFTCSWLVQRNMDLKFNIKSSSSSPDSRAVTCGMASLSAEKVTLDQRDYEKYSVSCQEDVTCPTAEETLPIELALEARQQNKYENYSTSFFIRDIIKPDPPKNLQMKPLKNSQVEVSWEYPDSWSTPHSYFSLKFFVRIQRKKEKMKETEEGCNQKGAFLVEKTSTEVQCKGGNVCVQAQDRYYNSSCSKWACVPCRVRS
- Median survival compared with Trehalose control (Log-rank test, p≤0.01 for PEG-mIL12 formulations, p≤0.05 for recombinant mIL-12): significantly longer
- tumor growth by luminescence compared with 9.5% Trehalose control (Study Day 19): significant (p≤0.05) inhibition of tumor growth
- Median survival time (nanoparticles 2 mg/kg i.v., recombinant mIL-12 s.c. 4 μg/kg then 12 μg/kg, Trehalose control 22.0 days): 25.0 days
